The record followed here is the supplement of paper PMC7877785.

± gives the uncertainty stated by the source.

This data set is described as follows: self-splicing fitness, log relative to wild type (ln ratio); higher = more splicing; Tetrahymena group I intron in knt gene, E. coli kanamycin selection, DiMSum; sequences stand for … in CUCUCU…GGAGGGAAAAGUUAUCAGGCAUGCACCUGGUAGCUAGUCUUUAAACCAAUAGAUUGCAUCGGUUUAAAAGGCAAGACCGUCAAAUUGCGGGAAAGGGGUCAACAGCCGUUCAGUACCAAGUCUCAGGGGAAACUUUGAGAUGGCCUUGCAAAGGGUAUGGUAAUAAGCUGACGGACAUGGUCCUAACCACGCAGCCAAGUCCUAAGUCAACAGAUCUUCUGUUGAUAUGGAUGCAGUUCACAGACUAAAUGUCGGUCGGGGAAGAUGUAUUCUUCUCAUAAGAUAUAGUCGGACCUCUCCUUAAUGGGAGCUAGCGGAUGAAGUGAUGCAACACUGGAGCCGCUGGGAACUAAUUUGUAUGCGAAAGUAUAUUGAUUAGUUUUGGAGUACUCGUGGUCG
In short, it runs like this: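 Colonies from six replicate transformations of E. coli BL21(DE3) were pooled and amplicon-sequenced on an Illumina HiSeq 2500. The library placed an intron with all eight P1ex-region nucleotides randomised inside the knt kanamycin-resistance gene on pET-22b(+), and cells grew overnight at 37°C or 30°C on LB agar with or without 25 μg/mL kanamycin (plus 100 μg/mL carbenicillin, 50 μM IPTG, 0.2% rhamnose). Fitness is the DiMSum error-weighted combination of wild-type-normalised replicate fold changes, kanamycin versus none.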

CCUUAGCAAUAUUACGAGCG: the “self-splicing fitness (ln)” value is, setting by setting: (30 °C) -1.02 ± 0.077; (37 °C) -0.792 ± 0.095.

Regarding CUCCAGCAAUAUUACGUAGC, the “self-splicing fitness (ln)” value is -2.49 ± 0.2 (30 °C) and -2.36 ± 0.25 (37 °C).

For the sequence GAUUAGCAAUAUUACGCGAU, the “self-splicing fitness (ln)” value was -3.61 ± 0.37 (30 °C) and -1.27 ± 0.44 (37 °C).

In the case of AAUUAGCAAUAUUACGAAUC, the “self-splicing fitness (ln)” value was -2.34 ± 0.16 (30 °C) and -0.829 ± 0.16 (37 °C).

Regarding GAUAAGCAAUAUUACGUCUU, the “self-splicing fitness (ln)” value is -0.224 ± 0.069 (30 °C) and 0.135 ± 0.088 (37 °C).

With AGUGAGCAAUAUUACGGUAA, the “self-splicing fitness (ln)” value (37 °C) was -1.43 ± 0.34.

UAUAAGCAAUAUUACGACCG: the “self-splicing fitness (ln)” value by setting is: (30 °C) -0.137 ± 0.12; (37 °C) -0.1 ± 0.16.

Regarding UGCGAGCAAUAUUACGCUUC, the “self-splicing fitness (ln)” value by setting is: (30 °C) -3.96 ± 0.39; (37 °C) -3.67 ± 0.39.

For ACUAAGCAAUAUUACGUCUG, the “self-splicing fitness (ln)” value was -1.37 ± 0.084 (30 °C) and -0.847 ± 0.1 (37 °C).

Take CGUUAGCAAUAUUACGUCCG: the “self-splicing fitness (ln)” value (30 °C) was -0.128 ± 0.18 and the “self-splicing fitness (ln)” value (37 °C) was -0.407 ± 0.2.

As to GUAGAGCAAUAUUACGGUUA, the “self-splicing fitness (ln)” value was -1.35 ± 0.11 (30 °C) and -0.0418 ± 0.13 (37 °C).

Turning to ACCGAGCAAUAUUACGCUAU, the “self-splicing fitness (ln)” value was -2.77 ± 0.14 (30 °C) and -2.26 ± 0.14 (37 °C).

For the sequence CCAAAGCAAUAUUACGUUCA, the “self-splicing fitness (ln)” value (30 °C) is -2.59 ± 0.17 and the “self-splicing fitness (ln)” value (37 °C) was -3.38 ± 0.33.

As to AGAGAGCAAUAUUACGAUUG, the “self-splicing fitness (ln)” value by setting is: (30 °C) -3.12 ± 0.25; (37 °C) -2.88 ± 0.35.

As to AAGCAGCAAUAUUACGCGGA, the “self-splicing fitness (ln)” value reads like this: (30 °C) -2.59 ± 0.13; (37 °C) -1.46 ± 0.11.

Take CCACAGCAAUAUUACGGCAG: the “self-splicing fitness (ln)” value (30 °C) is -1.16 ± 0.072 and the “self-splicing fitness (ln)” value (37 °C) was -0.579 ± 0.085.

On to UGACAGCAAUAUUACGCGUG, for which the “self-splicing fitness (ln)” value is, setting by setting: (30 °C) -0.925 ± 0.066; (37 °C) 0.0478 ± 0.08.

For the sequence AAGUAGCAAUAUUACGCGAG, the “self-splicing fitness (ln)” value is -1.74 ± 0.11 (30 °C) and -0.889 ± 0.13 (37 °C).

As for ACAAAGCAAUAUUACGUGCC, the “self-splicing fitness (ln)” value (30 °C) was -1.14 ± 0.077 and the “self-splicing fitness (ln)” value (37 °C) is -1.16 ± 0.097.

On to AAGCAGCAAUAUUACGCCUG, for which the “self-splicing fitness (ln)” value by setting is: (30 °C) -2.41 ± 0.13; (37 °C) -1.58 ± 0.14.

As for CUGCAGCAAUAUUACGACGA, the “self-splicing fitness (ln)” value (30 °C) was -1.85 ± 0.18 and the “self-splicing fitness (ln)” value (37 °C) is -1.16 ± 0.17.

In the case of UAUUAGCAAUAUUACGGCAA, the “self-splicing fitness (ln)” value runs as follows: (30 °C) -1.06 ± 0.14; (37 °C) -0.784 ± 0.15.

For AGUCAGCAAUAUUACGUUUU, the “self-splicing fitness (ln)” value (30 °C) is -1.49 ± 0.074 and the “self-splicing fitness (ln)” value (37 °C) was -0.278 ± 0.088.

GGCAAGCAAUAUUACGUAGC: the “self-splicing fitness (ln)” value by setting is: (30 °C) -2.4 ± 0.33; (37 °C) -2.24 ± 0.32.

Regarding CCACAGCAAUAUUACGUCCU, the “self-splicing fitness (ln)” value runs as follows: (30 °C) -3.44 ± 0.27; (37 °C) -1.76 ± 0.19.

As to ACUCAGCAAUAUUACGACCU, the “self-splicing fitness (ln)” value was -0.248 ± 0.12 (30 °C) and 0.216 ± 0.13 (37 °C).

For the sequence GCGCAGCAAUAUUACGUAAU, the “self-splicing fitness (ln)” value (30 °C) was -0.192 ± 0.061 and the “self-splicing fitness (ln)” value (37 °C) was found to be 0.31 ± 0.07.

Regarding AAAUAGCAAUAUUACGUGGU, the “self-splicing fitness (ln)” value was -3.87 ± 0.16 (30 °C) and -2.84 ± 0.15 (37 °C).

UACGAGCAAUAUUACGGUUA: the “self-splicing fitness (ln)” value is -0.815 ± 0.11 (30 °C) and 0.152 ± 0.11 (37 °C).

GUAGAGCAAUAUUACGAACG: the “self-splicing fitness (ln)” value (30 °C) is -2.44 ± 0.22 and the “self-splicing fitness (ln)” value (37 °C) was -1.38 ± 0.2.

AGACAGCAAUAUUACGCGGC: the “self-splicing fitness (ln)” value by setting is: (30 °C) -3.51 ± 0.24; (37 °C) -2.15 ± 0.21.

As to GACAAGCAAUAUUACGCCUC, the “self-splicing fitness (ln)” value was -2.68 ± 0.14 (30 °C) and -2.78 ± 0.28 (37 °C).

On to AUACAGCAAUAUUACGGGGA, for which the “self-splicing fitness (ln)” value by setting is: (30 °C) -2.98 ± 0.21; (37 °C) -2.3 ± 0.14.

With GAGUAGCAAUAUUACGCUUG, the “self-splicing fitness (ln)” value was -0.859 ± 0.088 (30 °C) and -0.313 ± 0.11 (37 °C).

Regarding GUAAAGCAAUAUUACGUUCA, the “self-splicing fitness (ln)” value is -0.419 ± 0.072 (30 °C) and 0.177 ± 0.12 (37 °C).

Turning to AUGAAGCAAUAUUACGCGAA, the “self-splicing fitness (ln)” value reads like this: (30 °C) -1.15 ± 0.087; (37 °C) -0.0789 ± 0.093.

CUAUAGCAAUAUUACGUCUA: the “self-splicing fitness (ln)” value is, setting by setting: (30 °C) -3.05 ± 0.36; (37 °C) -3.16 ± 0.35.
